{"source": "paper PMC7687109", "about": "“Effect of structural stability on endolysosomal degradation and T‐cell reactivity of major shrimp allergen tropomyosin” (Allergy, 2020)", "test_in_all_cases": "SEC-MALS; purified recombinant tropomyosin, neutral pH (pH 7.4), constant temperature of 25°C; molar mass from the peaks", "key": {"[1]": {"target": "Der p 10 (house dust mite tropomyosin) (Dermatophagoides pteronyssinus)"}, "[2]": {"target": "Pen m 1 (black tiger shrimp tropomyosin) (Penaeus monodon)"}, "[3]": {"target": "the molecule itself"}}, "data": [{"molecule": "Der p 10 (house dust mite tropomyosin) (natural protein)", "values": [{"measurement": "stoichiometry N", "setting": "[1]", "result": 2}]}, {"molecule": "Pen m 1 (black tiger shrimp tropomyosin) (natural protein)", "values": [{"measurement": "stoichiometry N", "setting": "[2]", "result": 2}]}, {"molecule": "Ani s 3 (Anisakis tropomyosin) (natural protein, Anisakis simplex, UniProt Q9NAS5 1-284, looked up, also called fish parasite tropomyosin) MDAIKKKMQAMKIEKDNALDRADAAEEKVRQMTDKLERIEEELRDTQKKMMQTENDLDKAQEDLSTANSNLEEKEKKVQEAEAEVAALNRRMTLLEEELERAEERLKLATAKLEEATHTADESERVRKVMENRSFQDEERANTVESQLKEAQMLAEEADRKYDEVARKLTMVEADLERAEERAETGENKIVELEEELRVVGNNLKSLEVSEEKALQREDSYEEQIRTVSARLKEAETRAEFAERSVQKLQKEVDRLEDELVHEKERYKSISEELDQTFQELSGY", "values": [{"measurement": "stoichiometry N", "setting": "[3]", "result": 2}]}, {"molecule": "Bla g 7 (German cockroach tropomyosin) (natural protein, Blattella germanica, UniProt Q9NG56 1-284, looked up) MDAIKKKMQAMKLEKDNAMDRALLCEQQARDANIRAEKAEEEARSLQKKIQQIENDLDQTMEQLMQVNAKLDEKDKALQNAESEVAALNRRIQLLEEDLERSEERLATATAKLAEASQAADESERARKILESKGLADEERMDALENQLKEARFMAEEADKKYDEVARKLAMVEADLERAEERAETGESKIVELEEELRVVGNNLKSLEVSEEKANLREEEYKQQIKTLNTRLKEAEARAEFAERSVQKLQKEVDRLEDELVHEKEKYKYICDDLDMTFTELIGN", "values": [{"measurement": "stoichiometry N", "setting": "[3]", "result": 2}]}]}
